The text below walks through data of US20120148593A1 (published 2012).

In test [1] the target is T1, human TLR4/MD-2 receptor complex expressed on transfected cells (human, UniProt O00206 24-839; Q9Y6Y9 19-160).
T1 construct: Tags differ by cell line: CHO-K1: N-terminal c-myc on TLR4, C-terminal c-Myc and Protein C on MD-2; also called TLR4/MD-2 complex; hTLR4/MD-2
The test can be described thus: flow cytometry, mock transfected vs TLR4/MD-2 transfected cells. For orientation: Flow cytometry measures light scatter and fluorescence of single cells or particles in a stream.
Target sequence in this assay (O00206 24-839 limits assumed, chain 1 of 2, one chain of several): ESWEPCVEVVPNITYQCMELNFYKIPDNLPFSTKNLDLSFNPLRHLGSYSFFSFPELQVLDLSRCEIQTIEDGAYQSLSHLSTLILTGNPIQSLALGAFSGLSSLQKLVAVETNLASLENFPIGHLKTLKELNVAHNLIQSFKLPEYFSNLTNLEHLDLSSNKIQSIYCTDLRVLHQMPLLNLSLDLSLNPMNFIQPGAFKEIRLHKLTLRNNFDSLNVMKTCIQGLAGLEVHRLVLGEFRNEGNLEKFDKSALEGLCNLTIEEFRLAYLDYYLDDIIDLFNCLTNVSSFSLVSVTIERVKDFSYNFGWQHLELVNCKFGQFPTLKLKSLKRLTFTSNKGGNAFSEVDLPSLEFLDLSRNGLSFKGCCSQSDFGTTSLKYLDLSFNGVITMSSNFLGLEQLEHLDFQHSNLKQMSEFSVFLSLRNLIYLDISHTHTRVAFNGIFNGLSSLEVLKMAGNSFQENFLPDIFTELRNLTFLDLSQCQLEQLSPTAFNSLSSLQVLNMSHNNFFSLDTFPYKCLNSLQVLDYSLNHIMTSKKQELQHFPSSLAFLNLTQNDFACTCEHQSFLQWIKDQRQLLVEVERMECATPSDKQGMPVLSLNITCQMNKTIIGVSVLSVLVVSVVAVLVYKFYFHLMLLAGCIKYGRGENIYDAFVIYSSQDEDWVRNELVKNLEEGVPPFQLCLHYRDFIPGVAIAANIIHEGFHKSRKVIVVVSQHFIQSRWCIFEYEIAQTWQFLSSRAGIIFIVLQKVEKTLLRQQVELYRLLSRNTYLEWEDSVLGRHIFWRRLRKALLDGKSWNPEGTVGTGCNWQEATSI

The target of test [2] is T1, human TLR4/MD-2 receptor complex …. The test can be described thus: flow cytometry, TLR4/MD-2 transfected CHO cells. The method, then:
FIG. 41 is a graph depicting that the hu15C1 humanized antibody that includes VH 4-28 shown in SEQ ID NO:45 (“15C1 4-28/A26”) and variants thereof in which residues at chosen positions have been replaced by the corresponding amino acid in the given human germline (“15C1 4-28° C.30/A26”; “15C1 4-28° C.48/A26”; “15C1 4-28° C.67/A26” and “15C1 4-28° C.69/A26”, see TABLE 1) are capable of binding specifically to the human TLR4/MD-2 complex on the surface of transfected CHO cells. MAb binding to the TLR4/MD-2 transfected CHO cells is shown by flow cytometry using the hu15C1 antibodies or the chimeric 15C1 (“15C1 CHIM”) (described above) at the concentrations indicated. Binding is measured as a cellular Mean Fluorescence Intensity (MFI) value.

Test [3] deals with T2, human MD-2 expressed in transfected HEK 293 cells (human, UniProt Q9Y6Y9 19-160).
T2 construct: also called MD-2 alone; wt MD-2
T2 chain: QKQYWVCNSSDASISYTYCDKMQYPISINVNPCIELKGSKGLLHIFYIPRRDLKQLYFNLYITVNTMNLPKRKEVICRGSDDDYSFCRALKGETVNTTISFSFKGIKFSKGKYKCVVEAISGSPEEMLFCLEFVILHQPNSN
In words: sandwich ELISA, capture on anti-FLAG M2, biotinylated mu18H10. On the procedure: For sample preparation, HEK 293 cells were transfected with the appropriate plasmid constructs using the Fugene 6™ transfection reagent as described in paragraph G above. 48 hours post-transfection, cells were collected and cleared by centrifugation. Cells were subsequently incubated with biotinylated mu18H10 (10 μg/ml) and lysed in 20 mM Tris pH 7.4, 150 mM NaCl, 1% NP40 containing COMPLETE™ protease inhibitors (Roche).
To perform the sandwich ELISA, Nunc maxisorp plate wells were coated with 50 μl of the anti-FLAG™ M2 MAb (Sigma) at a concentration of 5 μg/ml in PBS. Wells were blocked with 200 μl PBS 2% BSA and subsequently incubated with 50 μl of the appropriate samples at the indicated dilution. Wells were washed three times with 200 μl PBS 0.05% Tween 20 and incubated with 50 μl of the appropriate antibody (10 μg/ml for biotinylated mu18H10 and 12D4, 1 μg/ml for the polyclonal […]). Following a wash step as above, wells were incubated with 50 μl of the appropriate detection antibody (HRP conjugated streptavidin at a dilution of 1:1500 for the biotinylated MAbs and HRP conjugated anti-rabbit IgG (H+L) at a dilution of 1:5000 for the polyclonal rabbit Ab). […] Plates were read at a wavelength of 650 nm.
Background: ELISA stands for enzyme-linked immunosorbent assay.

The target of test [4] is T3, recombinant soluble MD-2 purified from baculovirus-infected insect cell supernatants (Homo sapiens (Human), UniProt Q9Y6Y9 19-160).
T3 construct: not shown: C-terminal FLAG and 6xHIS tags
T3 chain: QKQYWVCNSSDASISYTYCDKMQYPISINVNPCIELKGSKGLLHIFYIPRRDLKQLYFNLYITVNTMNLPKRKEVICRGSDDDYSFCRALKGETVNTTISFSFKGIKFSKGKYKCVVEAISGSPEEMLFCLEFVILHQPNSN
In words: direct ELISA, MD-2 coated at 5 µg/ml. The method, then: Recombinant soluble MD-2 with C terminal FLAG and histidine epitope tags was coated at a concentration of 5 μg/ml in 50 μl PBS on ELISA plates (Nunc Maxisorp). Wells were blocked with 200 μl PBS 2% BSA and subsequently incubated with the appropriate MAb at the indicated concentration in PBS 1% BSA. Following 3 wash steps with PBS 0.05% Tween 20, 50 μl HRP conjugated goat anti-mouse IgG (H+L) at a 1:5000 dilution was added to the wells. […] Plates were read at a wavelength of 650 nm.
Using direct ELISA, no binding of mu18H10 to recombinant soluble MD-2 generated with the baculovirus expression system was detected (FIG. 5a).

B1: mu16G7 murine monoclonal antibody (antibody, mouse IgG1, V domains shown)
VH: QVKLQESGAELMKPGASVKISCKATGYKFSDYWIEWIKQRPGHGLEWIGEILPGSGSTNYNEDFKDKATFTSDTSSNTAYMQLSSLTSEDSAVYYCAKEERAYYFGYWGQGTTVTVSS
VL: DVEMTQTPLSLPVSLGDQASISCRSSQSLENSNGNTYLNWYLQKPGQSPQLLIYRVSNRFSGVLDRFSGSGSGTDFTLKISRVEAEDLGVYFCLQVTHVPPTFGAGTKLELKR
As to B1, in test [1], the binding result is reported as “binds”.

B2: mu15C1 murine monoclonal antibody (antibody, mouse IgG1, V domains shown)
VH: DVQLQESGPDLIQPSQSLSLTCTVTGYSITGGYSWHWIRQFPGNKLEWMGYIHYSGYTDFNPSLKTRISITRDTSKNQFFLQLNSVTTEDTATYYCARKDPSDGFPYWGQGTLVTVSA
VL: DIVMTQSPATLSVTPGDRVSLSCRASQSISDHLHWYQQKSHESPRLLIKYASHAISGIPSRFSGSGSGTDFTLSIKSVEPEDIGVYYCQNGHSFPLTFGAGTKLELKR
For the molecule B2, the binding result in test [1] is “binds”.

B3: chimeric 15C1 MAb (antibody, V domains shown)
VH: DVQLQESGPDLIQPSQSLSLTCTVTGYSITGGYSWHWIRQFPGNKLEWMGYIHYSGYTDFNPSLKTRISITRDTSKNQFFLQLNSVTTEDTATYYCARKDPSDGFPYWGQGTLVTVSA
VL: DIVMTQSPATLSVTPGDRVSLSCRASQSISDHLHWYQQKSHESPRLLIKYASHAISGIPSRFSGSGSGTDFTLSIKSVEPEDIGVYYCQNGHSFPLTFGAGTKLELKR
notes: also called 15C1 CHIM; 15C1 chimeric antibody
As to B3, the binding result in test [2] was “binds”.

B4: mu18H10 murine monoclonal antibody (antibody, mouse IgG2b, V domains shown)
VH: QVQLQQSGADLVRPGALVKLSCTASGFNIKDSYIHWVKKRPEWGLEWIGWTDPENVNSIYDPRFQGKASITADTSSNTAFLQLTSLTSEDTAVYYCARGYNGVYYAMDYWGQGTTVTVSS
VL: QIVLTQSPSIMSASLGEEITLTCSASSSVIYMHWYQQKSGTSPKLLIYRTYNLASGVPSRFSGSGSGTFYSLTISSVEAEDAADYYCHQWSSFPYTFGGGTKLEIKR
Take B4: the binding result in test [3] is listed as “no binding (tested: 10 µg/ml)”; in test [1], “binds”; in test [4] it was “no binding”.

B5: chimeric 18H10 MAb (antibody, V domains shown)
VH: QVQLQQSGADLVRPGALVKLSCTASGFNIKDSYIHWVKKRPEWGLEWIGWTDPENVNSIYDPRFQGKASITADTSSNTAFLQLTSLTSEDTAVYYCARGYNGVYYAMDYWGQGTTVTVSS
VL: QIVLTQSPSIMSASLGEEITLTCSASSSVIYMHWYQQKSGTSPKLLIYRTYNLASGVPSRFSGSGSGTFYSLTISSVEAEDAADYYCHQWSSFPYTFGGGTKLEIKR
notes: also called 18H10chim; 18H10 chimeric antibody
Consider B5, for which the binding result in test [2] is “binds”.

B6: hu15C1 4-28 QC 30/A26 variant (antibody, V domains shown)
VH: QVQLQESGPGLVKPSDTLSLTCAVSGYSISGGYSWHWIRQPPGKGLEWMGYIHYSGYTDFNPSLKTRITISRDTSKNQFSLKLSSVTAVDTAVYYCARKDPSDGFPYWGQGTLVTVSS
VL: EIVLTQSPDFQSVTPKEKVTITCRASQSISDHLHWYQQKPDQSPKLLIKYASHAISGVPSRFSGSGSGTDFTLTINSLEAEDAATYYCQNGHSFPLTFGGGTKVEIK
notes: also called 15C1 4-28° C.30/A26
As for B6, the binding result in test [2] is listed as “binds”.

B7: hu15C1 4-28 QC 48/A26 variant (antibody, V domains shown)
VH: QVQLQESGPGLVKPSDTLSLTCAVSGYSITGGYSWHWIRQPPGKGLEWIGYIHYSGYTDFNPSLKTRITISRDTSKNQFSLKLSSVTAVDTAVYYCARKDPSDGFPYWGQGTLVTVSS
VL: EIVLTQSPDFQSVTPKEKVTITCRASQSISDHLHWYQQKPDQSPKLLIKYASHAISGVPSRFSGSGSGTDFTLTINSLEAEDAATYYCQNGHSFPLTFGGGTKVEIK
notes: also called 15C1 4-28° C.48/A26
For B7, the binding result in test [2] is reported as “binds”.

B8: hu15C1 4-28 QC 67/A26 variant (antibody, V domains shown)
VH: QVQLQESGPGLVKPSDTLSLTCAVSGYSITGGYSWHWIRQPPGKGLEWMGYIHYSGYTDFNPSLKTRVTISRDTSKNQFSLKLSSVTAVDTAVYYCARKDPSDGFPYWGQGTLVTVSS
VL: EIVLTQSPDFQSVTPKEKVTITCRASQSISDHLHWYQQKPDQSPKLLIKYASHAISGVPSRFSGSGSGTDFTLTINSLEAEDAATYYCQNGHSFPLTFGGGTKVEIK
notes: also called 15C1 4-28° C.67/A26
In the case of B8, the binding result in test [2] is on record as “binds”.

B9: hu15C1 4-28 QC 69/A26 variant (antibody, V domains shown)
VH: QVQLQESGPGLVKPSDTLSLTCAVSGYSITGGYSWHWIRQPPGKGLEWMGYIHYSGYTDFNPSLKTRITMSRDTSKNQFSLKLSSVTAVDTAVYYCARKDPSDGFPYWGQGTLVTVSS
VL: EIVLTQSPDFQSVTPKEKVTITCRASQSISDHLHWYQQKPDQSPKLLIKYASHAISGVPSRFSGSGSGTDFTLTINSLEAEDAATYYCQNGHSFPLTFGGGTKVEIK
notes: also called 15C1 4-28° C.69/A26
B9: the binding result in test [2] is “binds”.

B10: mu7E3 murine monoclonal antibody (antibody, mouse IgG1, V domains shown)
VH: QVTLKESGPGILQPSQTLSLTCSFSGFSLTTYNIGVGWIRQPSGKGLEWLAHIWWNDNIYYNTVLKSRLTFSKDTSNNQVFLKIASVDIADTATYYCIRMAEGRYDAMDYWGQGTSVTVSS
VL: AIQMTQSTSSLSASLGDRVTINCRASQDITNYLNWYQQKPDGTVRLLIYYTSKLHSGAPSRFSGRGSGTDYSLTISNLEQEDIATYFCQQGNTFPWTFGGGTKLEIKR
With B10, the binding result in test [1] was “binds”.

B11: chimeric 7E3 MAb (antibody, V domains shown)
VH: QVTLKESGPGILQPSQTLSLTCSFSGFSLTTYNIGVGWIRQPSGKGLEWLAHIWWNDNIYYNTVLKSRLTFSKDTSNNQVFLKIASVDIADTATYYCIRMAEGRYDAMDYWGQGTSVTVSS
VL: AIQMTQSTSSLSASLGDRVTINCRASQDITNYLNWYQQKPDGTVRLLIYYTSKLHSGAPSRFSGRGSGTDYSLTISNLEQEDIATYFCQQGNTFPWTFGGGTKLEIKR
notes: also called 7E3 CHIM; 7E3 chimeric antibody
For the molecule B11, the binding result in test [2] is given as “binds”.
